Measured values as given in paper PMC4264578.
Read-outs that look alike come from different tables or passages of the source.

Columns and labels:
Test in all cases: EMSA
GST-SUV39H1 [1] = biological target: T1, GST-SUV39H1 (UniProt O43463 1-412)
T1 sequence: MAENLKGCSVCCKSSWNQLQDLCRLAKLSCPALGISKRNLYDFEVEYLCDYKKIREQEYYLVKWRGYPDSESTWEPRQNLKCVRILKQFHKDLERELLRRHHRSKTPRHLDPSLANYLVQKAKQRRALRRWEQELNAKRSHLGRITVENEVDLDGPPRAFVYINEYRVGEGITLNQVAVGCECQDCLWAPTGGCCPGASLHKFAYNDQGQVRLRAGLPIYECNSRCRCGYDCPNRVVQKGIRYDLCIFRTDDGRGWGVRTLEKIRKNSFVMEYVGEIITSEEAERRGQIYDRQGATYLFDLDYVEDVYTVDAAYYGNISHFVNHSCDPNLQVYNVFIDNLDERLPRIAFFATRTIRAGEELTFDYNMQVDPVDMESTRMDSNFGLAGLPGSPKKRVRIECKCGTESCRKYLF

GST-SUV39H1 [2] = biological target: T1, GST-SUV39H1; remark: listed apart in the source
GST-SUV39H1 [3] = biological target: T1, GST-SUV39H1; remark: listed apart in the source

B1: (UUAGGG)7 TERRA RNA (ssRNA)
RNA: UUAGGGUUAGGGUUAGGGUUAGGGUUAGGGUUAGGGUUAGGG
binding result (GST-SUV39H1 [1]): binds

B2: (UUAGGG)10 TERRA RNA (ssRNA)
RNA: UUAGGGUUAGGGUUAGGGUUAGGGUUAGGGUUAGGGUUAGGGUUAGGGUUAGGGUUAGGG
binding result (GST-SUV39H1 [2]): binds

B3: (TTAGGG)10 DNA (ssDNA)
DNA: TTAGGGTTAGGGTTAGGGTTAGGGTTAGGGTTAGGGTTAGGGTTAGGGTTAGGGTTAGGG
binding result (GST-SUV39H1 [3]): no binding
